Data taken from doi:10.1101/2025.09.12.675771 (bioRxiv, 2025).

Key:
[1] = target: SARS-CoV-2 RBD (residues 332-527), Lambda variant (SARS-CoV-2, Lambda (C.37), L452Q | F490S)
[2] = target: SARS-CoV-2 RBD (residues 332-527), BQ.1.1 variant (SARS-CoV-2, Omicron BQ.1.1, R346T | K444T | N460K)

B1: R1-32-Q61E-WT (antibody, V domains shown)
VH: EVQLVQSGAEVKKPGSSVKVSCKASGGTFSSYFISWVRQAPGQGLEWMGGIIPILGIADYAEKFQGRVTITADKSTSTAYMELSSLRSEDTAVYYCARENGYSGYGAAYNFDLWGRGTLVTVSS
VL: QSVLTQPPSVSGAPGQRVTISCTGSDSNIGAGYDVHWYQQLPGTAPKLLIYGNSNRPSGVPDRFSGSKSGTSASLAITGLQAEDEADYYCQSYDSSLSGSVFGGGTKLTVL
binding result [1]: binds
binding result [2]: binds
